Drawing on article PMC11228396, this text covers stoichiometry N for one substance.

In general, stoichiometry N refers to the number of molecules, sites or subunits per partner or assembly.

The target of this experiment is Stabilized soluble Omicron BA.1 spike (SARS-CoV-2). Nature of the experiment: cryo-EM structure.

On to “Stabilized soluble Omicron BA.1 spike (domain or fragment)”, for which the stoichiometry N stood at 3.
